Experimental data reported in paper PMC11742113 (Molecular Biology of the Cell, 2025).

Target: T1, S. aureus FtsZ, full length (Staphylococcus aureus, UniProt P0A031 1-390, FITC label, ~0.7 FITC per FtsZ)
T1 sequence: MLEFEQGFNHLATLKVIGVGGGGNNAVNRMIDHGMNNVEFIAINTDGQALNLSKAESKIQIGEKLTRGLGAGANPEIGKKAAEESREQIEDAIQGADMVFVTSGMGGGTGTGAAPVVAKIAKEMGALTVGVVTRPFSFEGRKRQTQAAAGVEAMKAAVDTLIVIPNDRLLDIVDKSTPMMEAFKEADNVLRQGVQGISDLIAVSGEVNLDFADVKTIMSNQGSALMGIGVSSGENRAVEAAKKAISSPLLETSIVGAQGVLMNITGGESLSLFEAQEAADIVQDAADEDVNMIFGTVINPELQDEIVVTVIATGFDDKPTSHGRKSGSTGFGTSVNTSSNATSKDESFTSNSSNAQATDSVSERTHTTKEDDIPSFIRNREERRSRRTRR
Experiment: other fluorescence titration

B1: S. aureus GpsB (natural protein)
chain: MSDVSLKLSAKDIYEKDFEKTMARGYRREEVDAFLDDIIADYQKMADMNNEVVKLSEENHKLKKELEELRLRVATSRPQDNKSFSSNNTTTNTSSNNVDILKRISNLEKAVFGK
Question: With B1 as the binder, how does the Kd read?
Answer: The Kd was 53.8 ± 8 µM.
